Measured values reported in US20240392013A1 (STELEXIS THERAPEUTICS, published 2024).
Positions count from the first letter of the chain named.

Assays:
[1] = target: T1, IL1RAP-Fc protein (Sino Biological, Cat #10121-H02H), recombinant human IL1RAP extracellular domain Fc-tagged (human, UniProt Q9NPH3 21-367); assay: cell-free competition ELISA: IL1RAP-Fc coated, mAb titrated, blocks binding of premixed IL1R1-His/IL1β complex
T1 construct: extracellular domain; not shown: Fc tag
T1 sequence (looked up): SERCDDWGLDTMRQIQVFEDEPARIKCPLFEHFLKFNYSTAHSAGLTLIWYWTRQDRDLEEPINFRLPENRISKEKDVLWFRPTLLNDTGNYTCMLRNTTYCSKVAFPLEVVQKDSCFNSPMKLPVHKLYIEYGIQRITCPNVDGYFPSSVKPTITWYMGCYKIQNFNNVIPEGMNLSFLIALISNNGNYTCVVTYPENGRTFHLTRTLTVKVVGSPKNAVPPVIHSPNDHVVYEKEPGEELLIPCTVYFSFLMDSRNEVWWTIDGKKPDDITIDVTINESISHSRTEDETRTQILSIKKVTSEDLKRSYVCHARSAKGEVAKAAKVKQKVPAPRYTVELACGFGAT
Procedure: High-binding 96-well plates were coated with IL1RAP-Fc protein (Sino Biological, Cat #10121-H02H) at concentration of 4 µg/ml and incubated overnight at 4° C. After 3× washes with 0.05% Tween-20 in PBS, pH 7.5, plates were blocked with 1% BSA in PBS for 1 hour at room temperature. Following, wells were incubated with each antibody at concentration of 50 nM for 1 hour at room temperature. […] IL1R1/IL1β complex was preincubated in assay buffer (1% BSA in PBS, pH 7.5) for 20 min at room temperature. After 3× washes, plates were incubated with anti-His HRP detection antibody (Medna, Cat #D8212, […]) for 1 hour at room temperature. Following 5× washes, SuperPico chemiluminescent substrate was applied to wells and signal was read on Spectramax M5.

[2] = target: T2, cyIL1RAP-His (Lake Pharma) (cynomolgus monkey, UniProt A0A2K5X5J5 21-367); assay: Octet BLI; mAb captured on anti-mouse IgG Fc sensor; cyIL1RAP-His analyte
T2 construct: Bought protein (Lake Pharma, lot 16205819371); also called cynomolgus IL1RAP; monkey IL1RAP; not shown: His tag
T2 sequence: T1 sequence (looked up) with L183F, T273P, K326T
In short: (§1)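 Antibodies at 5 μg/ml were captured on anti-mouse IgG Fc biosensors; His-tagged human or cynomolgus IL1RAP extracellular domain served as analyte at 100, 50 and 25 nM in PBS kinetics buffer (0.1% BSA, 0.02% Tween-20). Association 120 s, dissociation 1200 s; KD (M) calculated from binding kinetics.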

[3] = target: T3, recombinant human IL1RAP protein, extracellular domain His-tagged (Sino Biological, Cat #10121-H08H) (human, UniProt Q9NPH3 21-367); assay: Octet BLI; mAb captured on anti-mouse IgG Fc sensor; huIL1RAP-His analyte
T3 construct: extracellular domain; Bought protein; The Octet analyte is printed as huIL1RAP-His (Sino Biological, lot MB08MA1301) without a catalogue number; also called huIL1RAP-His; hIL1RAP; not shown: His tag
T3 sequence (looked up): T1 sequence (looked up)
In short: as §1

B1: STLX2012 (antibody, V domains shown)
VH: QVQLLQSGAEVKKPGSSVKVSCKASGGTFSIYAIDWVRQAPGQGLEWMGGIIPIFGTANSAQKFQGRVTITADKSTSTAYMELSSLRSEDTAVYYCARNGATSDAFDMWGQGTMVTVSS
VL: EIVLTQSPGTLSLSPGERATLSCRASLSVSSNYLAWFQQRPGQAPRLLIHGVSRRATGIPDRFSGSGSGTDFTLTISRLEPEDFAVYYCQQYGSSPLTFGGGTKVEIK
notes: Purified from hybridoma of immunized Alivamab mice; intact IgG; captured on anti-mouse IgG Fc sensors in Octet; kappa light chain; also called 74804_12A21B
With B1 the IC50 [1] was 0.824 nM, the Kd [2] was 1.29 nM and the Response [2] was 0.328. For the same binder, the koff [2] was 0.000441 s⁻¹, the kon [2] was 342000 M⁻¹ s⁻¹ and the Kd [3] was 0.934 nM. The Response [3] was 0.303, the koff [3] was 0.000287 s⁻¹ and the kon [3] was 308000 M⁻¹ s⁻¹.

B2: STLX2043 (antibody, V domains shown)
VH: B1 VH with A58E, K63N, V68I, S77N, M108I, S118F
VL: B1 VL with H50Y
notes: Purified from hybridoma of immunized Alivamab mice; intact IgG; captured on anti-mouse IgG Fc sensors in Octet; kappa light chain; also called 74804_43F04A
B2 gave an IC50 [1] of 0.804 nM, a Kd [2] of 0.97 nM and a Response [2] of 0.286. The koff [2] was 0.0004 s⁻¹, the kon [2] was 412000 M⁻¹ s⁻¹ and the Kd [3] was 0.425 nM. The Response [3] was 0.251, the koff [3] was 0.000149 s⁻¹ and the kon [3] was 350000 M⁻¹ s⁻¹.
